biological target: T1, human FcRn (soluble human FcRn complexed with β2-microglobulin) (human, UniProt P61769 21-119, limits assumed); test: SPR, pH 7.0;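 also: antibodies captured on a Protein L sensor chip with human FcRn injected as analyte, KD calculated from fitted association and dissociation rate constants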
T1 construct: also called hFcRn

Kd [nM] | Binder
15 | IgG1-F367 (antibody, EU numbering; copies: 2 + 2) heavy: QVQLQESGPGLVKPSETLSLTCAVSGHSISHDHAWSWVRQPPGEGLEWIGFISYSGITNYNPSLQGRVTISRDNSKNTLYLQMNSLRAEDTAVYYCARSLARTTAMDYWGEGTLVTVSSASTKGPSVFPLAPSSKSTSGGTAALGCLVKDYFPEPVTVSWNSGALTSGVHTFPAVLQSSGLYSLSSVVTVPSSSLGTQTYICNVNHKPSNTKVDKKVEPKSCDKTHTCPPCPAPELLGGPKVFLFPPKPKDTLYISRTPHVTCVVVDVSHEFPEVKFNWYVDGVEVHNAKTKPREEQYNSTYRVVSVLQPLHADWLNGKEYKCKVSNKALPAPIEKTISKAKGQPREPQVYTLPPSRDELTKNQVSLTCLVKGFYPSDIAVEWESNGQPENNYKTTPPVLDSDGSFFLYSKLTVDKSRWQQGNVFSCSVMHEALHYHYTQKSLSLSP light: not shown
13 | IgG1-F372 (antibody, EU numbering; copies: 2 + 2) heavy: QVQLQESGPGLVKPSETLSLTCAVSGHSISHDHAWSWVRQPPGEGLEWIGFISYSGITNYNPSLQGRVTISRDNSKNTLYLQMNSLRAEDTAVYYCARSLARTTAMDYWGEGTLVTVSSASTKGPSVFPLAPSSKSTSGGTAALGCLVKDYFPEPVTVSWNSGALTSGVHTFPAVLQSSGLYSLSSVVTVPSSSLGTQTYICNVNHKPSNTKVDKKVEPKSCDKTHTCPPCPAPELLGGPKVFLFPPKPKDTLWISRTPEVTCVVVDVSHEDPEVKFNWYVDGVEVHNAKTKPREEQYNSTYRVVSVLTPLHQDWLNGKEYKCKVSNKALPAPIEKTISKAKGQPREPQVYTLPPSRDELTKNQVSLTCLVKGFYPSDIAVEWESNGQPENNYKTTPPVLDSDGSFFLYSKLTVDKSRWQQGNVFSCSVYHEALHYHYTQKSLSLSP light: not shown
20 | IgG1-F368 (antibody, EU numbering; copies: 2 + 2) heavy: QVQLQESGPGLVKPSETLSLTCAVSGHSISHDHAWSWVRQPPGEGLEWIGFISYSGITNYNPSLQGRVTISRDNSKNTLYLQMNSLRAEDTAVYYCARSLARTTAMDYWGEGTLVTVSSASTKGPSVFPLAPSSKSTSGGTAALGCLVKDYFPEPVTVSWNSGALTSGVHTFPAVLQSSGLYSLSSVVTVPSSSLGTQTYICNVNHKPSNTKVDKKVEPKSCDKTHTCPPCPAPELLGGPKVFLFPPKPKDTLYISRTPEVTCVVVDVSHEFPEVKFNWYVDGVEVHNAKTKPREEQYNSTYRVVSVLTPLHQDWLNGKEYKCKVSGKALPAPIEKTISKAKGQPREPQVYTLPPSRDELTKNQVSLTCLVKGFYPSDIAVEWASNGQPENNYKTTPPVLDSDGSFFLYSKLTVDKSRWQQGNVFSCSVIHEALHYHYTQKSLSLSP light: not shown
11 | IgG1-F373 (antibody, EU numbering; copies: 2 + 2) heavy: QVQLQESGPGLVKPSETLSLTCAVSGHSISHDHAWSWVRQPPGEGLEWIGFISYSGITNYNPSLQGRVTISRDNSKNTLYLQMNSLRAEDTAVYYCARSLARTTAMDYWGEGTLVTVSSASTKGPSVFPLAPSSKSTSGGTAALGCLVKDYFPEPVTVSWNSGALTSGVHTFPAVLQSSGLYSLSSVVTVPSSSLGTQTYICNVNHKPSNTKVDKKVEPKSCDKTHTCPPCPAPELLGGPKVFLFPPKPKDTLWISRTPEVTCVVVDVSHEDPEVKFNWYVDGVEVHNAKTKPREEQYNSTYRVVSVLTPLHADWLNGKEYKCKVSNKALPAPIEKTISKAKGQPREPQVYTLPPSRDELTKNQVSLTCLVKGFYPSDIAVEWESNGQPENNYKTTPPVLDSDGSFFLYSKLTVDKSRWQQGNVFSCSVYHEALHYHYTQKSLSLSP light: not shown
5.5 | IgG1-F375 (antibody, EU numbering; copies: 2 + 2) heavy: QVQLQESGPGLVKPSETLSLTCAVSGHSISHDHAWSWVRQPPGEGLEWIGFISYSGITNYNPSLQGRVTISRDNSKNTLYLQMNSLRAEDTAVYYCARSLARTTAMDYWGEGTLVTVSSASTKGPSVFPLAPSSKSTSGGTAALGCLVKDYFPEPVTVSWNSGALTSGVHTFPAVLQSSGLYSLSSVVTVPSSSLGTQTYICNVNHKPSNTKVDKKVEPKSCDKTHTCPPCPAPELLGGPKVFLFPPKPKDTLWISRTPEVTCVVVDVSHEDPEVKFNWYVDGVEVHEAKTKPREEQYNSTYRVVSVLTPLHQDWLNGKEYKCKVSNKALPAPIEKTISKAKGQPREPQVYTLPPSRDELTKNQVSLTCLVKGFYPSDIAVEWESNGQPENNYKTTPPVLDSDGSFFLYSKLTVDKSRWQQGNVFSCSVYHEALHYHYTQKSLSLSP light: not shown
41 | IgG1-F363 (antibody, EU numbering; copies: 2 + 2) heavy: QVQLQESGPGLVKPSETLSLTCAVSGHSISHDHAWSWVRQPPGEGLEWIGFISYSGITNYNPSLQGRVTISRDNSKNTLYLQMNSLRAEDTAVYYCARSLARTTAMDYWGEGTLVTVSSASTKGPSVFPLAPSSKSTSGGTAALGCLVKDYFPEPVTVSWNSGALTSGVHTFPAVLQSSGLYSLSSVVTVPSSSLGTQTYICNVNHKPSNTKVDKKVEPKSCDKTHTCPPCPAPELLGGPSVFLFPPKPKDTLMISRTVEVTCVVVDVSHEDPEVKFNWYVDGVEVHNAKTKPREEQYNSTYRVVSVLQVLHADWLNGKEYKCKVSNKALPAPIEKTISKAKGQPREPQVYTLPPSRDELTKNQVSLTCLVKGFYPSDIAVEWESNGQPENNYKTTPPVLDSDGSFFLYSKLTVDKSRWQQGNVFSCSVLHEALHYHYTQKSLSLSP light: not shown

Further lines, the binder ahead of its results:

Binder | Kd [nM]
IgG1-F362 (antibody, EU numbering; copies: 2 + 2) heavy: QVQLQESGPGLVKPSETLSLTCAVSGHSISHDHAWSWVRQPPGEGLEWIGFISYSGITNYNPSLQGRVTISRDNSKNTLYLQMNSLRAEDTAVYYCARSLARTTAMDYWGEGTLVTVSSASTKGPSVFPLAPSSKSTSGGTAALGCLVKDYFPEPVTVSWNSGALTSGVHTFPAVLQSSGLYSLSSVVTVPSSSLGTQTYICNVNHKPSNTKVDKKVEPKSCDKTHTCPPCPAPELLGGPSVFLFPPKPKDTLMISRTVEVTCVVVDVSHEDPEVKFNWYVDGVEVHNAKTKPREEQYNSTYRVVSVLQVLHQDWLNGKEYKCKVSGKALPAPIEKTISKAKGQPREPQVYTLPPSRDELTKNQVSLTCLVKGFYPSDIAVEWESNGQPENNYKTTPPVLDSDGSFFLYSKLTVDKSRWQQGNVFSCSVLHEALHYHYTQKSLSLSP light: not shown | 54
IgG1-F376 (antibody, EU numbering; copies: 2 + 2) heavy: QVQLQESGPGLVKPSETLSLTCAVSGHSISHDHAWSWVRQPPGEGLEWIGFISYSGITNYNPSLQGRVTISRDNSKNTLYLQMNSLRAEDTAVYYCARSLARTTAMDYWGEGTLVTVSSASTKGPSVFPLAPSSKSTSGGTAALGCLVKDYFPEPVTVSWNSGALTSGVHTFPAVLQSSGLYSLSSVVTVPSSSLGTQTYICNVNHKPSNTKVDKKVEPKSCDKTHTCPPCPAPELLGGPKVFLFPPKPKDTLYISREPEVTCVVVDVSHEFPEVKFNWYVDGVEVHEAKTKPREEQYNSTYRVVSVLTPLHQDWLNGKEYKCKVSNKALPAPIEKTISKAKGQPREPQVYTLPPSRDELTKNQVSLTCLVKGFYPSDIAVEWESNGQPENNYKTTPPVLDSDGSFFLYSKLTVDKSRWQQGNVFSCSVMHEALHYHYTQKSLSLSP light: not shown | 9.6
IgG1-F377 (antibody, EU numbering; copies: 2 + 2) heavy: QVQLQESGPGLVKPSETLSLTCAVSGHSISHDHAWSWVRQPPGEGLEWIGFISYSGITNYNPSLQGRVTISRDNSKNTLYLQMNSLRAEDTAVYYCARSLARTTAMDYWGEGTLVTVSSASTKGPSVFPLAPSSKSTSGGTAALGCLVKDYFPEPVTVSWNSGALTSGVHTFPAVLQSSGLYSLSSVVTVPSSSLGTQTYICNVNHKPSNTKVDKKVEPKSCDKTHTCPPCPAPELLGGPKVFLFPPKPKDTLWISRTPEVTCVVVDVSHEDPEVKFNWYVDGVEVHNAKTKPREEQYNSTYRVVSVLPVLHQDWLNGKEYKCKVSNKALPAPIEKTISKAKGQPREPQVYTLPPSRDELTKNQVSLTCLVKGFYPSDIAVEWESNGQPENNYKTTPPVLDSDGSFFLYSKLTVDKSRWQQGNVFSCSVYHEALHYHYTQKSLSLSP light: not shown | 130
IgG1-F369 (antibody, EU numbering; copies: 2 + 2) heavy: QVQLQESGPGLVKPSETLSLTCAVSGHSISHDHAWSWVRQPPGEGLEWIGFISYSGITNYNPSLQGRVTISRDNSKNTLYLQMNSLRAEDTAVYYCARSLARTTAMDYWGEGTLVTVSSASTKGPSVFPLAPSSKSTSGGTAALGCLVKDYFPEPVTVSWNSGALTSGVHTFPAVLQSSGLYSLSSVVTVPSSSLGTQTYICNVNHKPSNTKVDKKVEPKSCDKTHTCPPCPAPELLGGPSVFLFPPKPKDTLYISRTVEVTCVVVDVSHEDPEVKFNWYVDGVEVHNAKTKPREEQYNSTYRVVSVLQVLHQDWLNGKEYKCKVSNKALPAPIEKTISKAKGQPREPQVYTLPPSRDELTKNQVSLTCLVKGFYPSDIAVEWESNGQPENNYKTTPPVLDSDGSFFLYSKLTVDKSRWQQGNVFSCSVIHEALHYHYTQKSLSLSP light: not shown | 75
IgG1-F364 (antibody, EU numbering; copies: 2 + 2) heavy: QVQLQESGPGLVKPSETLSLTCAVSGHSISHDHAWSWVRQPPGEGLEWIGFISYSGITNYNPSLQGRVTISRDNSKNTLYLQMNSLRAEDTAVYYCARSLARTTAMDYWGEGTLVTVSSASTKGPSVFPLAPSSKSTSGGTAALGCLVKDYFPEPVTVSWNSGALTSGVHTFPAVLQSSGLYSLSSVVTVPSSSLGTQTYICNVNHKPSNTKVDKKVEPKSCDKTHTCPPCPAPELLGGPSVFLFPPKPKDTLMISRTVEVTCVVVDVSHEDPEVKFNWYVDGVEVHNAKTKPREEQYNSTYRVVSVLQVLHADWLNGKEYKCKVSGKALPAPIEKTISKAKGQPREPQVYTLPPSRDELTKNQVSLTCLVKGFYPSDIAVEWESNGQPENNYKTTPPVLDSDGSFFLYSKLTVDKSRWQQGNVFSCSVLHEALHYHYTQKSLSLSP light: not shown | 35
IgG1-F374 (antibody, EU numbering; copies: 2 + 2) heavy: QVQLQESGPGLVKPSETLSLTCAVSGHSISHDHAWSWVRQPPGEGLEWIGFISYSGITNYNPSLQGRVTISRDNSKNTLYLQMNSLRAEDTAVYYCARSLARTTAMDYWGEGTLVTVSSASTKGPSVFPLAPSSKSTSGGTAALGCLVKDYFPEPVTVSWNSGALTSGVHTFPAVLQSSGLYSLSSVVTVPSSSLGTQTYICNVNHKPSNTKVDKKVEPKSCDKTHTCPPCPAPELLGGPKVFLFPPKPKDTLWISREPEVTCVVVDVSHEDPEVKFNWYVDGVEVHNAKTKPREEQYNSTYRVVSVLTPLHQDWLNGKEYKCKVSNKALPAPIEKTISKAKGQPREPQVYTLPPSRDELTKNQVSLTCLVKGFYPSDIAVEWESNGQPENNYKTTPPVLDSDGSFFLYSKLTVDKSRWQQGNVFSCSVYHEALHYHYTQKSLSLSP light: not shown | 12
IgG1-F365 (antibody, EU numbering; copies: 2 + 2) heavy: QVQLQESGPGLVKPSETLSLTCAVSGHSISHDHAWSWVRQPPGEGLEWIGFISYSGITNYNPSLQGRVTISRDNSKNTLYLQMNSLRAEDTAVYYCARSLARTTAMDYWGEGTLVTVSSASTKGPSVFPLAPSSKSTSGGTAALGCLVKDYFPEPVTVSWNSGALTSGVHTFPAVLQSSGLYSLSSVVTVPSSSLGTQTYICNVNHKPSNTKVDKKVEPKSCDKTHTCPPCPAPELLGGPSVFLFPPKPKDTLMISRTVEVTCVVVDVSHEDPEVKFNWYVDGVEVHNAKTKPREEQYNSTYRVVSALQVLHQDWLNGKEYKCKVSNKALPAPIEKTISKAKGQPREPQVYTLPPSRDELTKNQVSLTCLVKGFYPSDIAVEWESNGQPENNYKTTPPVLDSDGSFFLYSKLTVDKSRWQQGNVFSCSVLHEALHYHYTQKSLSLSP light: not shown | 51
